Test results as given in patent US20050182242A1, “Global analysis of protein activities using proteome chips” (priority 2001, published 2005).

B1: MIS1: yeast GST-HisX6 fusion protein on proteome chip (protein, UniProt P09440 35-975, looked up)
C-1-tetrahydrofolate …: YHILSGRKLAQSIREKANDEIQAIKLKHPNFKPTLKIIQVGARPDSSTYVRMKLKASKDSNVDCIIEKLPAEITEVELLKKISDINDDDSIHGLLIQLPLPRHLDETTITNAVDFKKDVDGFHRYNAGELAKKGGKPYFIPCTPYGCMKLLEEAHVKLDGKNAVVLGRSSIVGNPIASLLKNANATVTVCHSHTRNIAEVVSQADIVIAACGIPQYVKSDWIKEGAVVIDVGINYVPDISKKSGQKLVGDVDFDSVKEKTSYITPVPGGVGPMTVAMLVSNVLLAAKRQFVESEKLPVIKPLPLHLESPVPSDIDISRAQSPKHIKQVAEELGIHSHELELYGHYKAKISPNIFKRLESRENGKYVLVAGITPTPLGEGKSTTTMGLVQALSAHLGKPSIANVRQPSLGPTLGVKGGAAGGGYAQVIPMDEFNLHLTGDIHAISAANNLLAAAIDTRMFHEATQKNDSTFYKRLVPRKKGIRKFTPSMQRRLKRLDIEKEDPDALTPEEVKRFARLNINPDTITIRRVVDINDRMLRQITIGEAATEKGFTRTTGFDITVASELMAILALSKSLHEMKERIGRMVIGADYDNKPVTVEDIGCTGALTALLRDAIKPNLMQTLEGTPVMVHAGPFANISIGASSVIADLMALKLVGSEKNPLNDKNIHEPGYVVTEAGFDFAMGGERFFDIKCRSSGLVPDAVVLVATVRALKSHGGAPNVKPGQSLPKEYTEENIDFVAKGVSNLVKQIENIKTFGIPVVVAINRFETDSQAEIEVIKKAALNAGASHAVTSNHWMEGGKGAVELAHAVVDATKEPKNFNFLYDVNSSIEDKLTSIVQKMYGGAKIEVSPEAQKKIDTYKKQGFGNLPICIAKTQYSLSHDPSLKGVPRGFTFPIRDVRASIGAGYLYALAAEIQTIPGLSTYAGYMAVEVDDDGEIEGLF
modifications: GST-His6 fusion tag
notes: yeast GST-HisX6 fusion protein on proteome chip
B2: KCS1: yeast GST-HisX6 fusion protein on proteome chip (protein, UniProt Q12494 1-1050, looked up)
Inositol hexakisphosphate …: MDTSHEIHDKIPDTLREQQQHLRQKESEGCITTLKDLNVPETKKLSSVLHGRKASTYLRIFRDDECLADNNNGVDSNNGGSVTCADKITRSEATPKSVPEGLQVSEKKNNPDTLSSSLSSFILSNHEEPAIKPNKHVAHRNNITETGQGSGEDIAKQQSHQPQVLHHQTSLKPIQNVDEGCISPKSTYQESLHGISEDLTLKPVSSATYYPHKSKADSGYEEKDKMENDIDTIQPATINCASGIATLPSSYNRHTFKVKTYSTLSQSLRQENVNNRSNEKKPQQFVPHSESIKEKPNTFEQDKEGEQADEEEDEGDNEHREYPLAVELKPFTNRVGGHTAIFRFSKRAVCKALVNRENRWYENIELCHKELLQFMPRYIGVLNVRQHFQSKDDFLSDLDQENNGKNDTSNENKDIEVNHNNNDDIALNTEPTGTPLTHIHSFPLEHSSRQVLEKEHPEIESVHPHVKRSLSSSNQPSLLPEVVLNDNRHIIPESLWYKYSDSPNSAPNDSYFSSSSSHNSCSFGERGNTNKLKRRDSGSTMINTELKNLVIREVFAPKCFRRKRNSNTTTMGNHNARLGSSPSFLTQKSRASSHDASNTSMKTLGDSSSQASLQMDDSKVNPNLQDPFLKKSLHEKISNALDGSHSVMDLKQFHKNEQIKHKNSFCNSLSPILTATNSRDDGEFATSPNYISNAQDGVFDMDEDTGNETINMDNHGCHLDSGKNMIIKSLAYNVSNDYSHHDIESITFEETSHTIVSKFILLEDLTRNMNKPCALDLKMGTRQYGVDAKRAKQLSQRAKCLKTTSRRLGVRICGLKVWNKDYYITRDKYFGRRVKVGWQFARVLARFLYDGKTIESLIRQIPRLIKQLDTLYSEIFNLKGYRLYGASLLLMYDGDANKSNSKRKKAANVKVNLIDFARCVTKEDAMECMDKFRIPPKSPNIEDKGFLRGVKSLRFYLLLIWNYLTSDMPLIFDEVEMNDMISEEADSNSFTSATGSKINFNSKWDWLDEFDKEDEEMYNDPNSKLRQKWRKYELIFDAEPRYNDDAQVSD
modifications: GST-HisX6 tag
notes: as for B1
B3: GAD1: yeast GST-HisX6 fusion protein on proteome chip (protein, UniProt Q04792 1-585, looked up)
Glutamate decarboxylase: MLHRHGSKQKNFENIAGKVVHDLAGLQLLSNDVQKSAVQSGHQGSNNMRDTSSQGMANKYSVPKKGLPADLSYQLIHNELTLDGNPHLNLASFVNTFTTDQARKLIDENLTKNLADNDEYPQLIELTQRCISMLAQLWHANPDEEPIGCATTGSSEAIMLGGLAMKKRWEHRMKNAGKDASKPNIIMSSACQVALEKFTRYFEVECRLVPVSHRSHHMLDPESLWDYVDENTIGCFVILGTTYTGHLENVEKVADVLSQIEAKHPDWSNTDIPIHADGASGGFIIPFGFEKEHMKAYGMERWGFNHPRVVSMNTSGHKFGLTTPGLGWVLWRDESLLADELRFKLKYLGGVEETFGLNFSRPGFQVVHQYFNFVSLGHSGYRTQFQNSLFVARAFSFELLNSSKLPGCFEIVSSIHESIENDSAPKSVKDYWEHPQAYKPGVPLVAFKLSKKFHEEYPEVPQAILSSLLRGRGWIIPNYPLPKATDGSDEKEVLRVVFRSEMKLDLAQLLIVDIESILTKLIHSYEKVCHHIELASEQTPERKSSFIYEMLLALASPQDDIPTPDEIEKKNKLKETTTRNYRGTC
modifications: GST-His6 tag
notes: as for B1
B4: HEM14: yeast GST-HisX6 fusion protein on proteome chip (protein, UniProt P40012 1-539, looked up)
Protoporphyrinogen oxidase: MLLPLTKLKPRAKVAVVGGGVSGLCFTYFLSKLRPDVEITLFESQNRTGGWIYSCNTRDMSGNPIMLEKGPRTLRGVSDGTVLIMDTLKDLGKEAVIQSIDKGCIADKKFLLDPSDKLVQVPNSISTTVKFLLNPLGKGLITGMMGEWFRKKSPHPGQDESVESICDRRFGNNYISNNMISALLRGIYGDDVSLLSAKRTFKKIYYNELKHGSNTQAMIDNMRGKSRSKKTENLHQSLTGCLNDYSNAFGKDRSKLLDLSNTLKKYPMLGLAGGLETFPKIVRNALNEFKNVKIVTGNPVTQIMKRPANETTIGLKAKSGDQYETFDHLRLTITPPKIAKLLPKDQNSLSKLLDEIQSNTIILVNYYLPNKDVIDADLQGFGYLVPKSNKNPGKLLGVIFDSVIERNFKPLFDKLSTNPNALNKYTKVTAMIGGCMLNEHGVPVVPSREVTINAVKDALNNHLGISNKDLEAGQWEFTIADRCLPRFHVGYDAWQERAERKLQESYGQTVSVGGMGFSRSPGVPDVIVDGFNDALQLSK
modifications: GST-HisX6 tag
notes: as for B1

test system: PI(3)P liposomes; assay: Yeast proteome chip probed with PI(3)P liposomes; conditions: liposome binding signal on yeast proteome chip, Cy3-streptavidin detection
Excerpt: To identify PI-binding proteins in yeast, liposomes were used as probes because the liposome provides the most relevant physiological condition to assay the interactors. Six types of liposomes were used. Each contains phosphatidylcholine (“PC”) with 1% (w/w) N-(biotinoyl)-1,2-dihexadecanoyl-sn-glycero-3-phosphoethanolamine, triethylammonium salt (biotin DHPE). The biotinylated lipid serves as a label that can be detected by Cy3-streptavidin (21). In addition to PC, the five other liposomes contain either 5% (w/w) PI(3)P, PI(4)P, PI(3,4)P2, PI(4,5)P2, or PI(3,4,5)P3 (FIG. 3A).
The protein-liposome interaction was assayed as follows. Appropriate amounts of each lipid in chloroform were mixed and dried under nitrogen. The lipid mixture was resuspended in TBS buffer by vortexing. The liposomes were created by sonication. Blocked proteome chips were washed three to five times in PBS buffer, and the extra liquid on the glass surface was removed by tapping the slides vertically on a KIMWIPE™. 200 μl of liposome solution was added to the proteome chip and immediately covered by a hydrophobic plastic cover slip (GRACE BIO-LAB™, USA). After trapped air bubbles were removed, the chip was incubated in a humidity chamber at RT for one hour. To remove the cover slip, the chip was immersed into large volume of PBS buffer (50 ml), so that the slip would float away. The chip was then moved to a second PBS bath (>50 ml) and washed 3×5 min with shaking at RT. After removing extra liquid on the surface of the chip, about 100 μl of Cy3 or Cy5 conjugated streptavidin (PIERCE™, USA; 1:2000 to 1:4000 dilution) was added to the surface and covered by a hydrophobic plastic cover slip (GRACE BIO-LABS™, USA). The chip was incubated for greater than 30 min in the dark at RT. The chip was then washed as described above. To completely remove the liquid on the chip, the chip was spun to dryness at 1500-2000 rpm for 5-10 min at RT.
• 1. S. Fields, Y. Kohara, D. J. Lockhart, Proc. Natl. Acad. Sci. 96, 8825 (1999); A. Goffeau et al., Science 274, 563 (1996). • 2 P. Ross-Macdonald et al., Nature 402, 413 (1999); J. L., DeRisi, V. R. Iyer, P. O. Brown, Science 278, 680 (1997); E. A. Winzeler et al., Science 285, 901 (1999). P. Uetz et al., Nature 403, 623 (2000); T. Ito et al., Proc. Natl. Acad. Sci. USA. 97, 1143 (2000) • 3 H. Zhu, M. Snyder, Curr. Opin. Chem. Biol. 5, 40 (2001). • 4 M. R. Martzen et al., Science 286, 1153 (1999). • 5 H. Zhu et al., Nat. Genet. 26, 283 (2000). • 6 G. MacBeath, S. L. Schreiber, Science 289, 1760 (2000). • 7 A. Caveman, J. Cell Sci. 113, 3543 (2000). • 8 P. Arenkov et al., Anal. Biochem 278, 123 (2000). • 9 D. A. Mitchell, T. K. Marshall, R. J. Deschenes, Yeast 9, 715 (1993). The expression vector pEGH was created by inserting an RGS-HisX6 epitope tag between the GST gene and the polycloning site of pEG(KG). The yeast ORFs were cloned using the strategy described previously (5), except every step was done in a 96-well format. Plasmid DNAs confirmed by DNA sequencing were reintroduced into both yeast (Y258) and E. coli (DH5a). […] 0.1 mM calcium was present in buffers in all subsequent steps. The chip was washed three times with PBS at RT. Cy3-conjugated streptavidin (Jackson IR, USA) (1:5000 dilution) was added to the chip and incubated for 30 min at RT. After extensive washing, the chip was spun dry and scanned using a microarray scanner; the data was subsequently acquired with the GENEPIX™ array densitometry software (Axon, USA). • 12 S. S. Hook, A. R. Means, Annu. Rev. Pharmacol. Toxicol.41, 471 (2001). • 13 M. S. Cyert, R. Kunisawa, D. Kaim, J. Thorner, Proc. Natl. Acad. Sci. USA 88, 7376 (1991). • 14 D. A. Stirling, K. A. Welch, M. J. Stark, EMBO J. 13, 4329 (1994). • 15 F. Bohl, Kruse, EMBO J. 19, 5514 (2000); E. Bertrand et al., Mol. Cell 2, 437 (1998). • 16 D. C. Winter, E. Y. Choe, R. Li, Proc. Nat. Acad Sci. USA 96, 7288 (1999). • 17 C.

Molecule | PI(3)P
B1 | 3.50
B2 | 0.00
B3 | 51.25
B4 | 1.00

test system: PI(4,5)P2 liposomes; assay: Yeast proteome chip probed with PI(4,5)P2 liposomes; conditions: liposome binding signal on yeast proteome chip, Cy3-streptavidin detection

Molecule | PI(4, 5)P2
B3 | 11.54

test system: PI(3,4)P2 liposomes; assay: Yeast proteome chip probed with PI(3,4)P2 liposomes; conditions: liposome binding signal on yeast proteome chip, Cy3-streptavidin detection

Molecule | PI(3, 4)P2
B1 | 86.34
B2 | 60.91
B4 | 21.03

test system: PI(3,4,5)P3 liposomes; assay: Yeast proteome chip probed with PI(3,4,5)P3 liposomes; conditions: liposome binding signal on yeast proteome chip, Cy3-streptavidin detection

Molecule | PI(3, 4, 5)P3
B1 | 43.65
B2 | 36.22
B4 | 8.55

test system: phosphatidylcholine (PC) liposomes; assay: Yeast proteome chip probed with PC liposomes; conditions: liposome binding signal on yeast proteome chip, Cy3-streptavidin detection
In short: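 Binding of arrayed yeast proteins to sonicated PC liposomes, with or without 5% (w/w) phosphoinositide, is scored by streptavidin fluorescence on the biotinylated lipid tracer.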

Molecule | PC
B1 | 71.02
B2 | 42.85
B3 | 24.36
B4 | 38.15

test system: PI(4)P liposomes; assay: Yeast proteome chip probed with PI(4)P liposomes; conditions: liposome binding signal on yeast proteome chip, Cy3-streptavidin detection

Molecule | PI(4)P
B1 | 65.32
B2 | 35.27
B3 | −1.96
B4 | 16.11
